Reference: the supplement of paper PMC10567573

Test: protein stability index of a GFP-peptide fusion (GPS, HEK-293T) (PSI 1-6); higher = more stable
Conditions: c terminus: native
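Note: lentivirally expressed fusion library, cells FACS-sorted into six equal-sized GFP/DsRed ratio bins, PSI computed from sequencing read fractions per bin weighted by bin number.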

Q: With DGWIRVSSDNVADLHEKYSGSTPP [PSMB5 addP] as the protein, how does the protein stability index (parent: NP_002788.1) read?
A: 4.78

Q: Which protein stability index (parent: NP_006221.1) does the source give for CQPISFSGFGAEDDDLGGLGLGPP [POLD2 addP] here?
A: 4.45

Q: Which protein stability index (parent: NP_009172.2) does the source give for LPALFTDLYSQEITAEEAREALPP [SNF8 addP] here?
A: 2.03
